The target of series [1] is T1, human LGR7/RXFP1 receptor (Homo sapiens, UniProt Q9HBX9).
T1 construct: cloned as 2271 base pair long DNA fragment; expressed in transfected cells; host or cells: CHO K1 (ATCC CCL-61) with CRE-luciferase reporter; receptor in pcDNA3.1(-)
T1 sequence (Q9HBX9 1-757): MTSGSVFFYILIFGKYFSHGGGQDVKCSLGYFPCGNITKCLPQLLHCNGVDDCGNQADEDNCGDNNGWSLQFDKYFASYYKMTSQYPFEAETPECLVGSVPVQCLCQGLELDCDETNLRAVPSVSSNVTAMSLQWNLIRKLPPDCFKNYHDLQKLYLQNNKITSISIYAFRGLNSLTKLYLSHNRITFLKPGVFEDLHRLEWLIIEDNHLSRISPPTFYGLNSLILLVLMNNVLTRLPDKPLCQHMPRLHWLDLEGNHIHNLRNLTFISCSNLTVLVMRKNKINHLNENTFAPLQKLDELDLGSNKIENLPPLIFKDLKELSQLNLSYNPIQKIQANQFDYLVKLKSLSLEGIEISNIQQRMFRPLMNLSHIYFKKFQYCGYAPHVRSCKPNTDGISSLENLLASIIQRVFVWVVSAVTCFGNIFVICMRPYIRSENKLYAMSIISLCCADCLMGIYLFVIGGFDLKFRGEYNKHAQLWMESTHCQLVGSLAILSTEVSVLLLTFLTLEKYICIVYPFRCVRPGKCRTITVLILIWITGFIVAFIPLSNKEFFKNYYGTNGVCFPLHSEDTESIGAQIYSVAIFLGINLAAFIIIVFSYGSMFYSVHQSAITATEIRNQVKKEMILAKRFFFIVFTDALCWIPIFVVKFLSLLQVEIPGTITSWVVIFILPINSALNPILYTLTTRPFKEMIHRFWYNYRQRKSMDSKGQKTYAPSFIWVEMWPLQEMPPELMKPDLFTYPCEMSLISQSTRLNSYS
Put plainly: Activity testing: CRE-luciferase reporter in CHO-CRE-LGR7 cell line. It counts as cell-based. Conditions: for EC50 (M): luciferase after 6 hours, examples of three to five independent experiments. The method, then: For stimulation, medium was exchanged by OptiMem (Gibco, #11058)+1% FCS containing different concentrations of the recombinantly expressed Relaxin variant proteins (usually starting at a concentration of 100 nM, followed by 1:2 dilutions). As positive control, commercially available recombinant expressed human Relaxin 2 (Genbank Accession number NP_604390.1) was used (R&D Systems, catalogue number 6586-RN-025). Subsequently, cells were incubated for 6 hours in a humified incubator at 5% carbon dioxide at 37° C. After 6 hours cells were tested for Luciferase activity using a Luciferase Assay System (Promega, # E1500) and using the Tecan Infinite 500 reader, luminescence mode, 1000 milliseconds integration time, measurement time 30 seconds.

For series [2], the system named is isolated perfused rat heart. As to the kind of experiment: Isolated perfused rat heart (Langendorff). Also on record: species or system Wistar rats. The protocol:
Male Wistar rats (200-250 g) were anesthetized using Narcoren (100 mg/kg i.p.). The heart was rapidly excised and connected to a Langendorff perfusion system (FMI GmbH, Seeheim-Ober Beerbach, Germany). The heart was perfused at a constant rate of 10 ml/min with Krebs-Henseleit bicarbonate buffer solution equilibrated with 95% O2-5% CO2. The perfusion solution contained (in mmol/l): NaCl 118; KCl 3; NaHCO3 22; KH2PO41,2; MgSO4 1,2; CaCl2 1,8; Glucose 10; Na-Pyruvat 2. A pressure transducer registered the perfusion pressure in the perfusion system. The left ventricular pressure (LVP) was measured using a second pressure transducer connected to a water-filled balloon which was inserted into the left ventricle via the left atrium. The end diastolic pressure was initially set to 8 mm Hg by adjusting the volume of the balloon. The hearts were spontaneously beating. The signals from the pressure transducer were amplified, registered and used for the calculation of the heart frequency and +dp/dt by a personal computer.

The conditions of series [3]: intravenously administrated, humans (Dschietzig T. et al. (2009)); cited from earlier work.
A short description of series [4]: In vivo plasma stability: serum levels by quantification ELISA after intravenous administration. To be noted: male Wistar rats, 240 μg/kg intravenously, three days after application. For orientation: An ELISA detects its analyte on a solid surface through an enzyme-linked reagent.
Method: Blood samples were collected at the indicated time points after application and serum levels of each protein were measured by using a quantification ELISA.
At time points 0 hour, 1 hour, 3 days, 5 days, and 7 days after compound administration, blood samples were taken and the concentrations of the Fc-single chain Relaxin and non-modified hRelaxin2 were determined using the commercially available quantification ELISA (R&D Systems, Human Relaxin-2 Quantikine ELISA Kit, catalogue number DRL200).
The mark [5] stands for this setting: Table 2, scR fusion protein constructs.

These results are taken from patent publication US9382305B2, “Relaxin fusion polypeptides and uses thereof” (BAYER INTELLECTUAL PROPERTY GMBH, priority 2011, dated 2016).

Where two headings read alike, the source gives them in different places. Ends that are not written are not given here.

Turning to “Relaxin Fc: human Relaxin 2 (B chain-C chain-A chain) fused via IleGluGlyArgMetAsp to N terminal end of human IgG1 Fc”, the “biological activity (activation of LGR7), in words” value (shortened to “biological activity”) in series [1] was “no activity”; in series [1] (listed as human wildtype Relaxin 2 molecule with its orientation B chain-C chain-A chain f) it was “does not show any detectable activity”. Moreover, in series [1] (setting [5]), the “EC50 (M)” value was “not detectable”. “hRelaxin 2: commercially available recombinant expressed human Relaxin 2 (R&D Systems, catalogue number 6586-RN-025), positive control (alpha QLYSALANKCCHVGCTKRSLARFC; beta SWMEEVIKLCGRELVRAQIAICGMSTWS; listed as Homo Sapiens)”: in series [2] (concentration of 1 nM), the “contractility (inotropic activity)” value was “negative inotrophic activity”, the coronary flow result was “increase” and the heart rate entry was “increase”. Moreover, in series [2] (isolated perfused rat heart), the “potency relative to scR-Fc 13” value is “ten fold more potent”. In addition, in series [2] (perfusion, FIG. 11), the coronary flow result is “significant increase”, the heart rate result is reported as “significant increase”, the “left ventricular diastolic pressure” value was “decrease” and the “left ventricular pressure (+dp/dtmax)” value is “decrease”. In addition, the half-life result in series [3] was “less than 10 minutes”. Further, the “serum concentration (ELISA)” value in series [4] was “undetectable”.

“scR14: single chain human Relaxin 3 A-L-B, linker GlyGlyGlySerGlyGlyGlySerGly; non-purified; SEQ ID NO: 14 (DVLAGLSSSCCKWGCSKSEISSLCGGGSGGGSGRAAPYGVRLCGREFIRAVIFTCGGSRW; ends and bridges not checked; cysteine pairing not given here)”: the “biological activity” value in series [1] was “detectable biological activity”. In the case of “scR-Var7: single chain human Relaxin 2, linker LysArgSerLeuSerArgLysLysArg; B chain C terminus linked via IleGluGlyArgMetAsp to human IgG1 Fc; SEQ ID NO: 40”, the “EC50 (M)” value in series [1] (setting [5]) was “active (EC50 n.d.)”.

On to “scR-Var8: human IgG1 Fc linked via IleGluGlyArgMetAsp to A chain N terminus; A-B linker LysArgSerLeuSerArgLysLysArg; SEQ ID NO: 41”, for which the “EC50 (M)” value in series [1] (setting [5]) is reported as “active (EC50 n.d.)”.

B1: scR6: single chain human Relaxin 2 A-L-B, fifteen amino acid linker SEQ ID NO: 173; Myc, hemagglutinin, 6 Histidine tags; SEQ ID NO: 6 (protein)
chain: EQKLISEEDLQLYSALANKCCHVGCTKRSLARFCGGGSGGGSGGGSGGGSWMEEVIKLCGRELVRAQIAICGMSTWSYPYDVPDYAHHHHHH
Turning to B1, the “EC50 (M)” value in series [1] (Table 1, scR constructs) is “not detectable”.

B2: scR16: human Relaxin 2 B chain-linker GlyGlyGlySerGlyGlyGlySerGly-A chain; Myc tag; SEQ ID NO: 152 (protein)
chain: EQKLISEEDLSWMEEVIKLCGRELVRAQIAICGMSTWSGGGSGGGSGQLYSALANKCCHVGCTKRSLARFC
Take B2: the “EC50 (M)” value in series [1] (Table 1, scR constructs) is recorded as “not detectable”.

B3: scR19: A chain of human Relaxin 2-linker SEQ ID NO: 139-B chain of human Relaxin 3; Myc tag; SEQ ID NO: 155 (protein)
chain: EQKLISEEDLQLYSALANKCCHVGCTKRSLARFCGGGSGGGSGRAAPYGVRLCGREFIRAVIFTCGGSRW
modifications: ends and bridges not checked
Regarding B3, in series [1], the “biological activity” value was “further reduction in the activity”. The “EC50 (M)” value in series [1] (Table 1, scR constructs) is on record as “active (EC50 n.d.)”.

B4: scR15: single chain human Relaxin 3 A-L-B, linker GlyGlyGlySerGlyGlyGlySerGly; Myc tag; SEQ ID NO: 15 (protein)
chain: EQKLISEEDLDVLAGLSSSCCKWGCSKSEISSLCGGGSGGGSGRAAPYGVRLCGREFIRAVIFTCGGSRW
modifications: ends and bridges not checked
Take B4: in series [1], the “biological activity” value is on record as “detectable biological activity”.

B5: scR13: single chain human Relaxin 2 A-L-B, linker LysArgSerLeuSerArgLysLysArg; non-purified; SEQ ID NO: 13 (protein)
chain: QLYSALANKCCHVGCTKRSLARFCKRSLSRKKRSWMEEVIKLCGRELVRAQIAICGMSTWS
modifications: ends and bridges not checked
Turning to B5, in series [1], the “biological activity” value is on record as “lower activity”. In addition, the “EC50 (M)” value in series [1] (Table 1, scR constructs) is on record as “active (EC50 n.d.)”.

B6: scR2: single chain human Relaxin 2 A-L-B, linker GlyGlyGlySerGly; Myc, hemagglutinin and 6 Histidine tags; SEQ ID NO: 2 (protein)
chain: EQKLISEEDLQLYSALANKCCHVGCTKRSLARFCGGGSGSWMEEVIKLCGRELVRAQIAICGMSTWSYPYDVPDYAHHHHHH
As to B6, the “EC50 (M)” value in series [1] (Table 1, scR constructs) is listed as “not detectable”.

B7: scR20: B chain of human Relaxin 3-linker SEQ ID NO: 139-A chain of human Relaxin 2; Myc tag; SEQ ID NO: 156 (protein)
chain: EQKLISEEDLRAAPYGVRLCGREFIRAVIFTCGGSRWGGGSGGGSGQLYSALANKCCHVGCTKRSLARFC
modifications: ends and bridges not checked
Turning to B7, the “EC50 (M)” value in series [1] (Table 1, scR constructs) is given as “not detectable”.

B8: scR18: B chain of human Relaxin 2-linker SEQ ID NO: 139-A chain of human Relaxin 3; Myc tag; SEQ ID NO: 154 (protein)
chain: EQKLISEEDLSWMEEVIKLCGRELVRAQIAICGMSTWSGGGSGGGSGDVLAGLSSSCCKWGCSKSEISSLC
modifications: relaxin fusion polypeptide
For the molecule B8, the “EC50 (M)” value in series [1] (Table 1, scR constructs) is reported as “not detectable”.

B9: scR1: single chain human Relaxin 2 A-L-B, linker GlyGlyGly; Myc, hemagglutinin and 6 Histidine tags; SEQ ID NO: 1 (protein)
chain: EQKLISEEDLQLYSALANKCCHVGCTKRSLARFCGGGSWMEEVIKLCGRELVRAQIAICGMSTWSYPYDVPDYAHHHHHH
On to B9, for which, in series [1] (Table 1, scR constructs), the “EC50 (M)” value is “not detectable”.

B10: scR17: A chain of human Relaxin 3-linker SEQ ID NO: 139-B chain of human Relaxin 2; Myc tag; SEQ ID NO: 153 (protein)
chain: EQKLISEEDLDVLAGLSSSCCKWGCSKSEISSLCGGGSGGGSGSWMEEVIKLCGRELVRAQIAICGMSTWS
modifications: relaxin fusion polypeptide
Turning to B10, in series [1], the “biological activity” value was “reduced activity”.

B11: scR-Fc 18: C terminal end of scR4 linked via 21 amino acid linker SEQ ID NO: 174 to human IgG1 Fc; SEQ ID NO: 33 (protein)
chain: QLYSALANKCCHVGCTKRSLARFCGGGSGGGSGSWMEEVIKLCGRELVRAQIAICGMSTWSGGGSGGGSGTLVTVSSESKYGPPCPPCPAPEAAAPELLGGPSVFLFPPKPKDTLMISRTPEVTCVVVDVSHEDPEVKFNWYVDGVEVHNAKTKPREEQYNSTYRVVSVLTVLHQDWLNGKEYKCKVSNKALPAPIEKTISKAKGQPREPQVYTLPPSRDELTKNQVSLTCLVKGFYPSDIAVEWESNGQPENNYKTTPPVLDSDGSFFLYSKLTVDKSRWQQGNVFSCSVMHEALHNHYTQKSLSLSPGK
modifications: relaxin fusion polypeptide
Take B11: the “EC50 (M)” value in series [1] (setting [5]) is “active (EC50 n.d.)”.
